Data published in patent US10632208B2, “Peptide-mediated drug delivery across epithelial barrier” (Purdue Research Foundation, priority 2017, dated 2020).

System: NF-κB
Test: NF-κB luciferase reporter assay in RAW 264.7 cells
Assay type: cell-based, murine
Protocol: The NF-κB Luciferase reporter RAW 264.7 cell line (Novus Biologicals), which expresses an optimized Renilla luciferase reporter gene (RenSP) under the transcriptional control of an NF-κB response element, was used. The cells were seeded (1×10^5 cells/well) into 96-well luminometer-compatible plates for 16 h and then treated with analytes for 6 h. Media from each well were aspirated, and then 100 μL of ice-cold PBS was added to each well. The plates were then frozen solid at −80° C. overnight to completely lyse the cells, thawed back to room temperature, and luciferase assays were performed using the LightSwitch Luciferase assay kit (Novus Biologicals). Luminescence was measured as the relative luminescence units (RLU) using Spectramax (Spectramax, Molecular Devices) and reported as the relative fold change compared with that of the control cells that were treated with media alone. Recombinant human or mouse TNF-α (R&D Systems) and polymyxin B, LPS (E. coli Serotype R515, Re, TLR grade), and proteinase K (each from Sigma-Aldrich) were used.

B1: LAP: Listeria adhesion protein, alcohol acetaldehyde dehydrogenase of Listeria monocytogenes, 866 aa, 94 kDa; recombinant, histidine-tagged form SEQ ID NO: 10 (protein)
chain: MAIKENAAQEVLEVQKVIDRLADNGQKALKAFESYNQEQVDNIVHAMALAGLDQHMPLAKLAVEETGRGLYEDKCIKNIFATEYIWNNIKNNKTVGVINEDVQTGVIEIAEPVGVVAGVTPVTNPTSTTLFKAIIAIKTRNPIIFAFHPSAQRCSSAAAKVVYDAAIAAGAPEHCIQWVEKPSLEATKQLMNHDKVALVLATGGAGMVKSAYSTGKPALGVGPGNVPAYIDKTAKIKRSVNDIILSKSFDQGMICASEQAVIVDKEVAKEVKAEMEANKCYFVKGAEFKKLESYVINPEKGTLNPDVVGKSPAWIANQAGFKVPEDTKILVAEIKGVGDKYPLSHEKLSPVLAFIEAANQAEAFDRCEEMLVYGGLGHSAVIHSTDKEVQKAFGIRMKACRIIVNAPSAQGGIGDIYNGFIPSLTLGCGSYGKNSVSQNVSATNLLNVKRIADRRNNMQWFKLPPKIFFEKYSTQYLQKMEGVERVFIVTDPGMGSFKYVDVVIEHLKKRGNDVAYQVFADVEPDPSDVTVYKGAELMKDFKPDTIIALGGGSAMDAAKGMWLFYEHPEASFFGLKQKFLDIRKRTFKYPKLGGKAKFVAIPTTSGTGSEVTPFAVITDKENNIKYPLADYELTPDVAIVDAQYVTTVPAHITADTGMDVLTHAIESYVSVMASDYTRGLSIRAIELVFENLRESVLTGDPDAREKMHNASALAGMAFANAFLGINHSLAHKIGPEFHIPHGRANAILMPHVIRYNALKPKKHALFPRYESFRADEDYARISRIIGFPAATTEEGVKSLVDEIIKLGKDVGIDMSLKGQNVAKKDLDAVVDTLADRAFMDQCTTANPKQPLVSELKEIYLEAYKGV
modifications: Listeria monocytogenes
- NF-κB activation ability after polymyxin-B treatment: retained the NF-κB activation ability
- NF-κB activation after proteinase-K treatment: abolished
- NF-κB activation ability after heat treatment (100° C., 10 min): abolished the NF-κB activation ability
- NF-κB activation (purified proteins, LPS positive control): NF-κB activation in a concentration-dependent manner
